In patent publication US20020025510A1, “Screening methods based on superactivated alpha V beta 3 integrin” (priority 2000, published 2002):
Blank lines part the entries; values can stand above or below the compound they belong to.

Experiments:
β3 integrin subunit = test: Immunoprecipitation and Western blotting of the β3 integrin subunit from surface-biotinylated cells; assay type: cell-based, human; conditions: cells incubated with 50 μM for 48 hours; precipitated with mAb L230; 90 kDa without inhibitor
Protocol: Immunoprecipitation and Western blotting were performed as follows. Confluent cells were surface biotinylated with 0.1 mg/ml of Sulfo-NHS-LC-Biotin (Pierce, Rockford, Ill.). Where indicated, the cells were incubated prior to biotinylation with 50 μM Batimastat for 48 hours in AIM-V medium (GibcoBRL). Cells were solubilized at 10^7/ml in lysis buffer (50 mM n-octyl-(-D-glucopyranoside in 50 mM TBS, pH 7.4/1 mM CaCl2/1 mM MgCl2/1 mM PMSF/10 μg/ml leupeptin/10 μg/ml pepstatin) for one hr on ice. Insoluble material was removed by centrifugation. Supernatants were precleared for two hours at 4° C. with Protein A-Agarose (Calbiochem, La Jolla, Calif.). Precleared supernatants (100-150 μl) were incubated overnight at 4° C. with 3 μg of the indicated antibodies. The immune complexes were collected on Protein A-Agarose 15 μl of a 50% slurry) during a two hour incubation at room temperature. Following washes with washing buffer (50 mM Tris, pH 7.4/0.5 M NaCl/0.1% Tween 20), the beads were treated with 4% SDS in 125 mM Tris, pH 6.8/20% glycerol buffer, and boiled. […]

[1] = target: integrin αvβ3 with the wild type β3 subunit, on β3-MCF7 cells (human) (UniProt P06756); test: flow cytometry, β3-MCF7 cells stained with 5 µg/ml LM609, n=11
[2] = target: integrin αvβ3 modified by MT1-MMP, on β3/MT-MCF7 cells (human) (UniProt P06756); test: flow cytometry, β3/MT-MCF7 cells stained with 5 µg/ml LM609, n=11
[3] = target: integrin αvβ3 modified by MT1-MMP, on β3/MT-MCF7 cells (human) (UniProt P06756); test: cell-based or functional assay

Sequence of UniProt P06756 (P06756 31-1048 limits assumed, chain 1 of 2): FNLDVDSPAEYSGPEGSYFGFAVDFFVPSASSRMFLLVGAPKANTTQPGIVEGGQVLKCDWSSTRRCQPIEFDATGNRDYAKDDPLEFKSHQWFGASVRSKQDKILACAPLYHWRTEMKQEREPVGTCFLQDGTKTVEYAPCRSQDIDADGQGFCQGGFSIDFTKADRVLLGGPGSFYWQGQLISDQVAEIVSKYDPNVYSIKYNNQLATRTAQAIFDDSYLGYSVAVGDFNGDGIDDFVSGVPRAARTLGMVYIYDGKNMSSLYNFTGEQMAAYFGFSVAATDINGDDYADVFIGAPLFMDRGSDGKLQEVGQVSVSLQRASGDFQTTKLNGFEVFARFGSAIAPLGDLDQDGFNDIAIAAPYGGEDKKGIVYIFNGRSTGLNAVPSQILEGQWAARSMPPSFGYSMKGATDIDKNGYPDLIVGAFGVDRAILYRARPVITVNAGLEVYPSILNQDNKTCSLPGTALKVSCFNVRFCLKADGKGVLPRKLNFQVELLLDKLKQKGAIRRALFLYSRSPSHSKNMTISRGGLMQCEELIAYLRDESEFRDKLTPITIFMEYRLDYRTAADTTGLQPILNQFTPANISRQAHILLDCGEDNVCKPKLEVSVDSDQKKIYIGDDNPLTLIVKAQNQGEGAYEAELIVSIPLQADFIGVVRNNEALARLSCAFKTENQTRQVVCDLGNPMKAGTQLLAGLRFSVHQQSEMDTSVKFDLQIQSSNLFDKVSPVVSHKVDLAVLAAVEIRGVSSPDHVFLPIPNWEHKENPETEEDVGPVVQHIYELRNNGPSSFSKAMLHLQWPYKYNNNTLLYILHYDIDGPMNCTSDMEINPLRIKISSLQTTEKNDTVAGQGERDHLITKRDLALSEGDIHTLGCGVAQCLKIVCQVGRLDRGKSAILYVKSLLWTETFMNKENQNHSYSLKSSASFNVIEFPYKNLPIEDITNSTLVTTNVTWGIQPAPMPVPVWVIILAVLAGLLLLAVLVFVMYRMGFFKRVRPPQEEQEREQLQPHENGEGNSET
Sequence of UniProt P06756 (chain, as listed by the source limits assumed, chain 2 of 2): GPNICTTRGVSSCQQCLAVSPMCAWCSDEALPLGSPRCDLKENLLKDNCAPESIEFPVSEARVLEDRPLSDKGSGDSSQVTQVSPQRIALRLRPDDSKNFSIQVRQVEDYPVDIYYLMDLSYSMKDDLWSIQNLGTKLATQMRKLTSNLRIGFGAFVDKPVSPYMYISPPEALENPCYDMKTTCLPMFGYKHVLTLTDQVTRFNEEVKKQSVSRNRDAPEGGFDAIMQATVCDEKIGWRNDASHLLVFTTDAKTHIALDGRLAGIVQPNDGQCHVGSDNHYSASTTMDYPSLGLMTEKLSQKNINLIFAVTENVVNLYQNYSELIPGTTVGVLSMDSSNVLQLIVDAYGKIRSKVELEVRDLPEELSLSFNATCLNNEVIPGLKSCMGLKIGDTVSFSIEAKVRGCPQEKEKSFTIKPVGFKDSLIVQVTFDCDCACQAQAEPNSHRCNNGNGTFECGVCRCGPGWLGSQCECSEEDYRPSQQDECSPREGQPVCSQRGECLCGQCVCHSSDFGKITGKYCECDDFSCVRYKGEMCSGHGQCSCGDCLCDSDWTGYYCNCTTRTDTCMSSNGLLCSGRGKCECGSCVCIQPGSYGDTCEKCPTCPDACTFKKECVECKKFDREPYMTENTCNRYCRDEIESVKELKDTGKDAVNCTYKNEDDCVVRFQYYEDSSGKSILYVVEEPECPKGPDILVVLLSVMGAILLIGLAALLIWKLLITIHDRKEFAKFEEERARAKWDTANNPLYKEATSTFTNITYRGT

Compound: CNC(=O)[C@H](Cc1ccccc1)NC(=O)[C@H](CC(C)C)[C@H](CSc1cccs1)C(=O)NO [Batimastat]
Apparent molecular mass of the β3 integrin subunit from β3/MT-MCF7 cells (β3 integrin subunit): 95 kDa

mean fluorescence intensity [1]: 38.7 | mean fluorescence intensity [2]: 35.5
Compound: murine mAb LM609 specific to integrin αvβ3 (antibody)

cells migrating to the vitronectin-coated membrane undersurface (Transwell, 48 hours) [3]: 23300 cells
Compound: vitronectin (from UniProt P04004 20-478) (ligand)
